Data on nine molecules can be found in US20130178605A1 (GLENMARK PHARMACEUTICALS S A, published 2013).

The target of experiment [1] is T1, alpha 2 subunit of the human VLA-2 receptor (on HT1080 cells) (human, UniProt P17301 30-1181).
T1 construct: whole, on cells; also called hVLA2
Nature of the experiment: flow cytometry on HT1080 cells, detected with mouse anti c-myc tag antibody.

Experiment [2] addresses T2, VL-Fc (BTB)-F405A-Y407S-K409R chain.
T2 construct: Human IGHG1 Fc chain with the named substitutions (EU numbering), fused to a variable light-chain kappa domain antibody
Nature of the experiment: co-expression in HEK293-EBNA, protein-A purification, non-reducing SDS-PAGE scanning densitometry, impurities omitted.

In experiment [3] the target is T3, VL-Fc (BTB)-F405A-Y407S chain.
T3 construct: Human IGHG1 Fc chain with the named substitutions (EU numbering), fused to a variable light-chain kappa domain antibody
Described as above.

The target in experiment [4] is T4, VL-Fc (BTB)-F405A-K409R chain.
T4 construct: Human IGHG1 Fc chain with the named substitutions (EU numbering), fused to a variable light-chain kappa domain antibody
Described as above.

For experiment [5], the target named is T5, VL-Fc (BTB)-Y407S-K409R chain.
T5 construct: Human IGHG1 Fc chain with the named substitutions (EU numbering), fused to a variable light-chain kappa domain antibody
The description is as above.

The target in experiment [6] is T6, VL-Fc (BTB)-F405A-Y407S-K409R-T411R chain.
T6 construct: Human IGHG1 Fc chain with the named substitutions (EU numbering), fused to a variable light-chain kappa domain antibody
Described as above.

The target in the next experiment is T7, VL-Fc IGHGA chain.
T7 construct: Human IGHG1 Fc chain with CH3 substitutions S364T, K392L, T394W, K409I, T411R (EU numbering), fused to VL
Nature of the experiment: co-expression in HEK293-EBNA, protein-A purification, non-reducing SDS-PAGE scanning densitometry.

In the next experiment the target is VL-BT gamma chain. The description is as above.
In experiment [7] the target is T8, VL-Fc (BTB)-K409R-T411R chain.
T8 construct: Human IGHG1 Fc chain with the named substitutions (EU numbering), fused to a variable light-chain kappa domain antibody
Nature of the experiment: co-expression in HEK293-EBNA, protein-A purification, non-reducing SDS-PAGE scanning densitometry, impurities omitted.

For experiment [8], the target named is T9, human CD19 cell-surface protein (on Raji cells) (human, UniProt P15391 20-556).
T9 construct: whole, on cells; also called hCD19
T9 sequence (looked up): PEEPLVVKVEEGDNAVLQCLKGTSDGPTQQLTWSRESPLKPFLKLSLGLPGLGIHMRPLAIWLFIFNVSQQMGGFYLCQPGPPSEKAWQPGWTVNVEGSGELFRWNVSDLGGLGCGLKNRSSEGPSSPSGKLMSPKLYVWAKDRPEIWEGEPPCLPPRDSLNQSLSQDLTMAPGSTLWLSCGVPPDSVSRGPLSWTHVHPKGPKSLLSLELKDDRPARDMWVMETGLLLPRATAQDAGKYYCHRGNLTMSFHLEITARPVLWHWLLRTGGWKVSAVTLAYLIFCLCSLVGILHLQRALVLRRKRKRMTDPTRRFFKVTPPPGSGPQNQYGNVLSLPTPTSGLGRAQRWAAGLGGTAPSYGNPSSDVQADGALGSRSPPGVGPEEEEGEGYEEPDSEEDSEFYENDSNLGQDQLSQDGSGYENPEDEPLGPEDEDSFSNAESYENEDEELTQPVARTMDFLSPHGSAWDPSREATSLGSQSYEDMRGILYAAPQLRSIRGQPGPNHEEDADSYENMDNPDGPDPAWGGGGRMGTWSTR
Nature of the experiment: flow cytometry on Raji cells (CD19+ VLA2-), 10 µg/ml, detected by c-myc tag (FIG. 31A) and by His tag (FIG. 31B).

The target of the next experiment is VL-BT beta F405A chain. Nature of the experiment: co-expression in HEK293-EBNA, protein-A purification, non-reducing SDS-PAGE scanning densitometry.
Experiment [9] addresses T9, human CD19 cell-surface protein (on …). The experiment can be described thus: flow cytometry on Raji cells, detected with mouse anti His tag antibody.

B1: anti-hCD19 antibody (antibody, human IgG1, V domains shown)
VH: QVQLVQSGGGVVQPGRSLRLSCAASGVSLPDYGVSWVRQAPGKGLEWVAVIWGSETTYYNSALKSRFTISRDNSKNTLYLQMNSLRAEDTAVYYCAKHYYYGGSYAMDYWGQGTLVTVSS
VL: DIQMTQSPSSLSASVGDRVTITCRASQDISKYLNWYQQKPGKAIKLLIYHTSRLHSGVPSRFSGSGSGTDFTLTISSLQPEDFATYYCQQGATLPYTFGPGTKVDIKR
notes: Control with a single specificity, obtained by co-transfection of chain three with chain four of the bispecific antibody
As for B1, the binding result in experiment [1] was “no binding”.

B2: Fc (BTA)-F405S-Y407V-K409W-T411N chain (other)
chain: DKTHTCPPCPAPELLGGPSVFLFPPKPKDTLMISRTPEVTCVVVDVSHEDPEVKFNWYVDGVEVHNAKTKPREEQYNSTYRVVSVLTVLHQDWLNGKEYKCKVSNKALPAPIEKTISKAKGQPREPQVYTLPPSRDELTKNQVSLTCLVKGFYPSDIAVEWESNGQPENNYKTTPPVLDSDGSFSLVSWLNVDKSRWQQGNVFSCSVMHEALHNHYTQKSLSLSPGK
notes: Human IGHG1 Fc chain with the named substitutions (EU numbering)
As for B2, the hetero-dimer formation percentage in [2] worked out at 15%; in experiment [3] it was 7%; in experiment [4], 4%; in experiment [5], 5%; in experiment [6], 9%.

B3: Fc IGHAG chain (other)
chain: DKTHTCPPCPAPELLGGPSVFLFPPKPKDTLMISRTPEVTCVVVDVSHEDPEVKFNWYVDGVEVHNAKTKPREEQYNSTYRVVSVLTVLHQDWLNGKEYKCKVSNKALPAPIEKTISKAKGQPREPEVHTLPPSRDELTKNQVSLTCLVRGFYPSDIAVEWESNGQPENNYKTTPPRLESDGSFALTSKLTVDKSRWQQGNVFSCSVMHEALHNHYTQKSLSLSPGK
notes: Human IGHG1 Fc chain with CH3 substitutions Q347E, Y349H, K370R, V397R, D399E, F405A, Y407T (EU numbering)
In the case of B3, in the experiment with VL-Fc IGHGA chain, the “hetero-dimer percent of the protein-A purified material” value (from here on “hetero-dimer percent”) was ≥ 54%.

B4: BT delta chain (other)
chain: DKTHTCPPCPAPELLGGPSVFLFPPKPKDTLMISRTPEVTCVVVDVSHEDPEVKFNWYVDGVEVHNAKTKPREEQYNSTYRVVSVLTVLHQDWLNGKEYKCKVSNKALPAPIEKTISKAKGQPREPQVYTMPPSRDELTKNQVNLACLVKEFYPSDIAVEWESNGQPENNYFTAPPVLSSDGSFNLVSLLKVDKSRWQQGNVFSCSVMHEALHNHYTQKSLSLSPGK
As for B4, the “hetero-dimer percent” value with VL-BT gamma chain is ≥ 52.1%.

B5: Fc (BTA)-S364K-T366V-K370T-K392Y-K409W-T411N chain (other)
chain: DKTHTCPPCPAPELLGGPSVFLFPPKPKDTLMISRTPEVTCVVVDVSHEDPEVKFNWYVDGVEVHNAKTKPREEQYNSTYRVVSVLTVLHQDWLNGKEYKCKVSNKALPAPIEKTISKAKGQPREPQVYTLPPSRDELTKNQVKLVCLVTGFYPSDIAVEWESNGQPENNYYTTPPVLDSDGSFFLYSWLNVDKSRWQQGNVFSCSVMHEALHNHYTQKSLSLSPGK
notes: as for B2
Consider B5, for which the hetero-dimer formation percentage in experiment [2] was determined as 72%; in experiment [3], 90%; in [4], 60%; in experiment [7], 32%; in [5], 74%; in [6] it was 88%.

B6: Fc (BTA)-Y407V-K409W-T411N chain (other)
chain: DKTHTCPPCPAPELLGGPSVFLFPPKPKDTLMISRTPEVTCVVVDVSHEDPEVKFNWYVDGVEVHNAKTKPREEQYNSTYRVVSVLTVLHQDWLNGKEYKCKVSNKALPAPIEKTISKAKGQPREPQVYTLPPSRDELTKNQVSLTCLVKGFYPSDIAVEWESNGQPENNYKTTPPVLDSDGSFFLVSWLNVDKSRWQQGNVFSCSVMHEALHNHYTQKSLSLSPGK
notes: as for B2
Take B6: the hetero-dimer formation percentage was 52% in experiment [2]; 50% in experiment [3]; 25% in [4]; 25% in experiment [5]; 53% in experiment [6].

B7: anti-hCD19_anti-hVLA2 bispecific antibody (bispecific antibody, human IgG1, kappa)
heavy 1: QVQLQESGPGLVKPSETLSLTCTVSGFSLTNYGIHWIRQPPGKGLEWLGVIWARGFTNYNSALMSRLTISKDNSKNQVSLKLSSVTAADTAVYYCARANDGVYYAMDYWGQGTLVTVSSASTKGPSVFPLAPSSKSTSGGTAALGCLVKDYFPEPVTVSWNSGALTSGVHTFPAVLQSSGLYSLSSVVTVPSSSLGTQTYICNVNHKPSNTKVDKKVEPKSCDKTHTCPPCPAPELLGGPSVFLFPPKPKDTLMISRTPEVTCVVVDVSHEDPEVKFNWYVDGVEVHNAKTKPREEQYNSTYRVVSVLTVLHQDWLNGKEYKCKVSNKALPAPIEKTISKAKGQPREPQVYTLPPSRDELTKNQVKLVCLVTGFYPSDIAVEWESNGQPENNYYTTPPVLDSDGSFSLVSWLNVDKSRWQQGNVFSCSVMHEALHNHYTQKSLSLSPGKHHHHHH
light 1: DFVMTQSPAFLSVTPGEKVTITCSAQSSVNYIHWYQQKPDQAPKKLIYDTSKLASGVPSRFSGSGSGTDYTFTISSLEAEDAATYYCQQWTTNPLTFGQGTKVEIKRTVAAPSVFIFPPSDEQLKSGTASVVCLLNNFYPREAKVQWKVDNALQSGNSQESVTEQDSKDSTYSLSSTLTLSKADYEKHKVYACEVTHQGLSSPVTKSFNRGEC
heavy 2: QVQLVQSGGGVVQPGRSLRLSCAASGVSLPDYGVSWVRQAPGKGLEWVAVIWGSETTYYNSALKSRFTISRDNSKNTLYLQMNSLRAEDTAVYYCAKHYYYGGSYAMDYWGQGTLVTVSSASTKGPSVFPMAPSSKSTSGGTANLACLVKEYFPEPVTVSWNSGALTSGVFTAPAVLSSSGLYNLVSLVKVPSSSLGTQTYICNVNHKPSNTKVDKKVEPKSCDKTHTCPPCPAPELLGGPSVFLFPPKPKDTLMISRTPEVTCVVVDVSHEDPEVKFNWYVDGVEVHNAKTKPREEQYNSTYRVVSVLTVLHQDWLNGKEYKCKVSNKALPAPIEKTISKAKGQPREPEVATFPPSRDELTKNQVTLVCLVTGFYPSDIAVEWESNGQPENNYKTDPPLLESDGSFALSSRLRVDKSRWQQGNVFSCSVMHEALHNHYTQKSLSLSPGKEQKLISEEDLN
light 2: DIQMTQSPSSLSASVGDRVTITCRASQDISKYLNWYQQKPGKAIKLLIYHTSRLHSGVPSRFSGSGSGTDFTLTISSLQPEDFATYYCQQGATLPYTFGPGTKVDIKRTVAAPKVTIFPPSDEQLKSGTATVLCLLEKFYPREAKVQWKVDNALQSGNSQEGVMEQDSKDSTYMLFSWLTLSKADYEKHKVYACEVTHQGLSSPVTKSFNRGEC
notes: Four distinct chains; also called anti-hCD19_anti-VLA2 bispecific antibody
For B7, the binding result in [8] is given as “binds”.

B8: BT alpha IGHG3 chain (other)
chain: DKTHTCPPCPAPELLGGPSVFLFPPKPKDTLMISRTPEVTCVVVDVSHEDPEVKFNWYVDGVEVHNAKTKPREEQYNSTYRVVSVLTVLHQDWLNGKEYKCKVSNKALPAPIEKTISKAKGQPREPQVYTLPPSREEMTKNQVKLVCLVTGFYPSDIAVEWESSGQPENNYYTTPPMLDSDGSFSLVSWLNVDKSRWQQGNIFSCSVMHEALHNRFTQKSLSLSPGK
B8: the “hetero-dimer percent” value with VL-BT beta F405A chain is ≥ 91%.

B9: anti-hVLA2 antibody (antibody, human IgG1, kappa, V domains shown)
VH: QVQLQESGPGLVKPSETLSLTCTVSGFSLTNYGIHWIRQPPGKGLEWLGVIWARGFTNYNSALMSRLTISKDNSKNQVSLKLSSVTAADTAVYYCARANDGVYYAMDYWGQGTLVTVSS
VL: DFVMTQSPAFLSVTPGEKVTITCSAQSSVNYIHWYQQKPDQAPKKLIYDTSKLASGVPSRFSGSGSGTDYTFTISSLEAEDAATYYCQQWTTNPLTFGQGTKVEIKR
notes: Control with a single specificity, obtained by co-transfection of chain one with chain two of the bispecific antibody
For B9, the binding result in experiment [9] is recorded as “no binding”.
